# In patent publication US20260008872A1 (NANO TAG BIOTECHNOLOGIES, published 2026):
# Ends that are not written are not given here.
# T1: epitope tag peptide SRLEEELRRRLTE (SEQ ID NO: 2), biotinylated (also: biotinylated (site and linker not given here))
# T1 construct: Rationally designed peptide; also called ALFA-tag
# T1 peptide: SRLEEELRRRLTE
# Molecular target: T1, epitope tag peptide SRLEEELRRRLTE (SEQ …)
# Test: BLI (Octet), biotinylated peptide on SAX2.0 biosensors, 1:1 global fit
# Description: (§1) To determine the affinity of humanized NbALFA variants to the epitope tag of SEQ ID NO: 2, an Octet RED96 or an Octet HTX from ForteBio was utilized. The measurement principle is based on biolayer interferometry (BLI). SAX2.0 biosensors were soaked for 10 min in kinetic buffer (KB), supplied by the manufacturer of the instrument. At first, a 60 or 120 sec baseline in KB was measured, followed by a loading step of 240 sec with 83 ng/ml of biotinylated peptide of SEQ ID NO: 2. After loading, free streptavidin entities on the biosensor were quenched during a 120 sec incubation step in a 100 μg/ml biocytin solution. Subsequently, a 60 to 600 sec baseline in KB was measured followed by association of the VHH. The VHH was applied with a maximal concentration of 10 nM and was 1:1 serial diluted in KB. As a reference, only KB was measured. Association was performed for 900 sec, followed by a dissociation time of 1500 sec in KB. The signal of the reference well was subtracted from the signal of all other biosensors and the signals of these processed data were aligned to the average of the second baseline. For inter-step correction, the data were aligned to the dissociation step and Savitzky-Golay filtering was applied to all curves. Association and dissociations were globally fitted using a 1:1 Langmuir binding model.
Binder,Kd,koff,kon
"wtNbALFA (original alpaca-derived NbALFA single-domain antibody) (VHH, VHH; Any purification tag on the construct used in the BLI and SpA assays is not described; also called wild type NbALFA) VHH: EVQLQESGGGLVQPGGSLRLSCTASGVTISALNAMAMGWYRQAPGERRVMVAAVSERGNAMYRESVQGRFTVTRDFTNKMVSLQMDNLKPEDTAVYYCHVLEDRVDSFHDYWGQGTQVTVSS",0.16 nM,6.37e-05 s⁻¹,399000 M⁻¹ s⁻¹
Variant 11 of humanized NbALFA (VHH) VHH: EVQLVESGGGLVQPGGSLRLSCAASGVTISALNAMAMGWYRQAPGKRREMVAAVSERGNAMYRESVKGRFTISRDNAKRMVYLQMNSLRAEDTAVYYCHVLEDRVDSFHDYWGQGTQVTVSS,0.0595 nM,3.7e-05 s⁻¹,622000 M⁻¹ s⁻¹
"Variant 8 of humanized NbALFA (VHH, Further engineered humanized variant; Any tag on the tested construct is not described) VHH: EVQLVESGGGLVQPGGSLRLSCAASGVTISALNAMAMGWFRQAPGKRREMVAAVSERGNAMYRESVQGRFTISRDNAKRMVYLQMNSLRAEDTAVYYCHVLEDRVDSFHDYWGQGTQVTVSS",0.263 nM,0.000263 s⁻¹,1e+06 M⁻¹ s⁻¹
"Variant 9 of humanized NbALFA (VHH, Further engineered humanized variant; Any tag on the tested construct is not described) VHH: EVQLVESGGGLVQPGGSLRLSCAASGVTISALNAMAMGWYRQAPGKRREMVAAVSERGNAMYRESVQGRFTISRDNAKRMVYLQMNSLRAEDTAVYYCHVLEDRVDSFHDYWGQGTQVTVSS",0.182 nM,3.69e-05 s⁻¹,203000 M⁻¹ s⁻¹
Variant 10 of humanized NbALFA (VHH) VHH: EVQLVESGGGLVQPGGSLRLSCAASGVTISALNAMAMGWYRQAPGKRREMVAAVSERGNTMYRESVQGRFTISRDNAKRMVYLQMNSLRAEDTAVYYCHVLEDRVDSFHDYWGQGTQVTVSS,0.306 nM,0.000147 s⁻¹,480000 M⁻¹ s⁻¹
Variant 13 of humanized NbALFA (VHH) VHH: EVQLVESGGGLVQPGGSLRLSCAASGVTISALNAMAMGWYRQAPGKRREMVAAVSERGNTYYRDSVKGRFTISRDNAKRMVYLQMNSLRAEDTAVYYCHVLEDRVDSFHDYWGQGTQVTVSS,0.217 nM,0.000167 s⁻¹,767000 M⁻¹ s⁻¹
Variant 14 of humanized NbALFA (VHH) VHH: EVQLVESGGGLVQPGGSLRLSCAASGVTISALNAMAMGWYRQAPGKRREMVAAVSERGNAMYRESVKGRFTISRDNSKNTLYLQMNSLRAEDTAVYYCHVLEDRVDSFHDYWGQGTQVTVSS,0.218 nM,0.00013 s⁻¹,596000 M⁻¹ s⁻¹
Variant 15 of humanized NbALFA (VHH) VHH: EVQLVESGGGLVQPGGSLRLSCAASGVTISALNAMAMGWYRQAPGKRREMVAAVSERGNTYYRDSVKGRFTISRDNSKNTLYLQMNSLRAEDTAVYYCHVLEDRVDSFHDYWGQGTQVTVSS,,0.000302 s⁻¹,1.59e+06 M⁻¹ s⁻¹
Variant 12 of humanized NbALFA (VHH) VHH: EVQLVESGGGLVQPGGSLRLSCAASGVTISALNAMAMGWYRQAPGKRREMVAAVSERGNTMYRESVKGRFTISRDNAKRMVYLQMNSLRAEDTAVYYCHVLEDRVDSFHDYWGQGTQVTVSS,0.248 nM,0.000151 s⁻¹,609000 M⁻¹ s⁻¹

# Molecular target: T1, epitope tag peptide SRLEEELRRRLTE (SEQ …)
# Test: biolayer interferometry (Octet); biotinylated peptide of SEQ ID NO: 2 loaded on SAX2.0 biosensors; VHH in solution, 1:1 serial dilution (Method 1)
# Excerpt: FIG. 1: Affinity of humanized NbALFA variants generated by CDR grafting. A, affinity measurements of the original alpaca-derived NbALFA (wtNbALFA) for the peptide of SEQ ID NO: 2. B, affinity measurements of variant 3 for the peptide of SEQ ID NO: 2. C, affinity measurements of variant 4 for the peptide of SEQ ID NO: 2. D, affinity measurements of variant 5 for the peptide of SEQ ID NO: 2. E, affinity measurements of variant 6 for the peptide of SEQ ID NO: 2. F, affinity measurements of variant 7 for the peptide of SEQ ID NO: 2. Affinity was determined using biolayer interferometry as described in Method 1 of the Examples.
# as §1
row,Binder,binding result
1,"Variant 3 of humanized NbALFA (VHH, CDR-grafted variant, produced in E. coli and purified by IMAC; The tag is not described) VHH: EVQLLESGGGLVQPGGSLRLSCAASGVTISALNAMAMGWFRQAPGKGLEFVAAVSERGNAMYRESVQGRFTISRDNSKNTLYLQMNSLRAEDTAVYYCAALEDRVDSFHDYWGQGTLVTVSS",no binding
2,"Variant 4 of humanized NbALFA (VHH, CDR-grafted variant, produced in E. coli and purified by IMAC; The tag is not described) VHH: EVQLLESGGGLVQPGGSLRLSCAASGVTISALNAMAMGWFRQAPGKGLEFVAAVSERGNAYYRDSVKGRFTISRDNSKNTLYLQMNSLRAEDTAVYYCAALEDRVDSFHDYWGQGTLVTVSS",no binding
3,"Variant 5 of humanized NbALFA (VHH, CDR-grafted variant, produced in E. coli and purified by IMAC; The tag is not described) VHH: EVQLQASGGGFVQPGGSLRLSCAASGVTISALNAMAMGWFRQAPGKEREFVSAISERGNAYYRDSVKGRFTISRDNSKNTVYLQMNSLRAEDTATYYCAALEDRVDSFHDYWGQGTQVTVSS",no binding
4,"Variant 6 of humanized NbALFA (VHH, CDR-grafted variant, produced in E. coli and purified by IMAC; The tag is not described) VHH: EVQLQASGGGFVQPGGSLRLSCAASGVTISALNAMAMGWFRQAPGKEREFVSAVSERGNAMYRESVQGRFTISRDNSKNTVYLQMNSLRAEDTATYYCAALEDRVDSFHDYWGQGTQVTVSS",no binding

# Molecular target: T1, epitope tag peptide SRLEEELRRRLTE (SEQ …)
# Test: BLI (Octet), biotinylated peptide on SAX2.0 biosensors, 1:1 global fit
# Remark: another data set of the same source
# Description: as §1
Binder,Kd,koff,kon
"wtNbALFA (original alpaca-derived NbALFA single-domain antibody) (VHH, VHH; Any purification tag on the construct used in the BLI and SpA assays is not described; also called wild type NbALFA) VHH: EVQLQESGGGLVQPGGSLRLSCTASGVTISALNAMAMGWYRQAPGERRVMVAAVSERGNAMYRESVQGRFTVTRDFTNKMVSLQMDNLKPEDTAVYYCHVLEDRVDSFHDYWGQGTQVTVSS",0.16 nM,6.37e-05 s⁻¹,399000 M⁻¹ s⁻¹
"Variant 7 of humanized NbALFA (VHH, CDR-grafted variant, produced in E. coli and purified by IMAC; The tag is not described) VHH: EVQLVESGGGLVQPGGSLRLSCAASGVTISALNAMAMGWFRQAPGKGRELVAAVSERGNAMYRESVQGRFTISRDNAKRMVYLQMNSLRAEDTAVYYCHVLEDRVDSFHDYWGQGTQVTVSS",1.86 nM,0.000276 s⁻¹,149000 M⁻¹ s⁻¹
